From US9260500B2, “Peptide and use thereof” (Takeda Pharmaceutical Company Limited, priority 2009, dated 2016)
Non-standard residues stand in square brackets, D forms with d. *: point of attachment. 4Pal = N[C@@H](Cc1ccncc1)C(=O)O; Aad = N[C@@H](CCCC(=O)O)C(=O)O; Cha = N[C@@H](CC1CCCCC1)C(=O)O; Gly(cPr) = N[C@H](C(=O)O)C1CC1; Isobutyryl = CC(C)C(=O)*; Iva = CC[C@](C)(N)C(=O)O; Nle = CCCC[C@H](N)C(=O)O; Nva = CCC[C@H](N)C(=O)O; Abu = CC[C@H](N)C(=O)O; Aib = CC(C)(N)C(=O)O; βAla = NCCC(=O)O

What was measured:
[1] = target: T1, human Y2 receptor (Homo sapiens, UniProt P49146); assay: Receptor Binding Assay (RBA) for Human Y2, [125I]-PYY displacement on hY2R/CHO membrane fraction; settings: IC50 of test compound/IC50 of PYY(3-36) (PYY(3-36) taken as 1)
T1 construct: expressed in transfected cells; membrane fraction
T1 sequence (P49146 1-381): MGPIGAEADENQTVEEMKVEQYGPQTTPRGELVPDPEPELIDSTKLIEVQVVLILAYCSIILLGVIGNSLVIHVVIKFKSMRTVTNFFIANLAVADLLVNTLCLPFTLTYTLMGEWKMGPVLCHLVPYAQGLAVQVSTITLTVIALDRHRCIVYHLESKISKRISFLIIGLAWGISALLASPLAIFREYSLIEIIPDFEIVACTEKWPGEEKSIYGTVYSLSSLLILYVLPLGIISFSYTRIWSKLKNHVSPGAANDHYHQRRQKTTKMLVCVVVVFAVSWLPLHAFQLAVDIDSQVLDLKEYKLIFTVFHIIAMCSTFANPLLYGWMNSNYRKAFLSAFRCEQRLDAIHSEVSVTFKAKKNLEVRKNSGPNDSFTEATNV
Method: (1) Construction of Expression Plasmid for the Human Y2 Receptor (Y2R) Gene
PCR was performed by a reaction using Pfu DNA polymerase ([…]), with a human brain cDNA (PT3158-1, Clontech) as the template, wherein synthetic DNAs with the following sequences were used as a combination of 5′ and 3′ primers, whereby the human Y2R gene was cloned. Primer 1 was prepared on the basis of base sequence information on the human Y2R gene (Refseq ID No. NM_000910) with the addition of Kozak's consensus sequence. Primer 2 was prepared on the basis of base sequence information on the human Y2R gene.
The PCR product obtained was cloned into pCR4-Blunt-TOPO (Invitrogen), and the plasmid was extracted according to a conventional method (QIAwell 8 Plus, QIAGEN). After confirming the base sequence, the human Y2R gene was re-cloned by a PCR reaction with the plasmid DNA as the template, using Primer 1 as the 5′ primer and Primer 2 as the 3′ primer. The PCR was performed using the Pyrobest DNA polymerase (TaKaRa). The PCR product obtained was re-cloned into pCR-Blunt II-TOPO (Invitrogen), and the plasmid was extracted according to a conventional method (QIAGEN). An Xho I restriction enzyme digestion site and an Spe I restriction enzyme digestion site are present in the cloning site of the pCR-Blunt II-TOPO; a plasmid clone was selected wherein the human Y2R gene was inserted in the orientation such that the Xho I restriction enzyme digestion site was positioned upstream of Primer 1, and the Spe I restriction enzyme digestion site was positioned downstream of Primer 2. After confirming the base sequence, the plasmid clone was digested with the restriction enzymes Xho I and Spe I to yield a DNA fragment. The DNA fragment was inserted into the animal cell expression vector pAKKO-111H (the same plasmid as pAKKO-1.111H described in Biochem. Biophys. Acta, Hinuma, S. et al., 1219, 251-259 (1994)), which was enzymatically digested with Sal I and Spe I, to yield the expression plasmid pAK-hY2R (pAKKO-111H/Y2R).
(2) Test Method: Receptor Binding Assay (RBA) for Human Y2
A human NPY2R (hY2R) stable expression cell line was acquired by transducing the animal cell expression plasmid pAK-hY2R into CHO/dhfr-cells using the CellPhect Transfection kit (Amersham Pharmacia Biotech Co.). First, 240 μl of Buffer A (attached to the CellPhect Transfection kit) was added to 9.6 μg of the plasmid DNA dissolved in 240 μl of distilled water; this mixture was stirred and allowed to stand for 10 minutes, after which 480 μL of Buffer B (attached to the CellPhect Transfection kit) was added, and the mixture was vigorously stirred to form a liposome containing the DNA. 2.5×10^5 or 4×10^5 CHO/dhfr− cells (obtained from ATCC) were seeded to 60 mm petri dishes, and cultured in Ham's F-12 medium (Sigma Co.) containing 10% fetal bovine serum (BioWest Co.) at 37° C. in 5% gaseous carbon dioxide for 1 day, after which 480 μL of the liposome was added drop by drop on to the cells in each petri dish. This was cultured at 37° C. in 5% gaseous carbon dioxide for 6 hours, after which the cells were twice washed with serum-free Ham's F-12 medium; 3 mL of 15% glycerol was added onto the cells in the petri dish and treated for 2 minutes. This was again washed 3 times with serum-free Ham's F-12 medium, after which the cells were cultured in Ham's F-12 medium containing 10% fetal bovine serum at 37° C. in 5% gaseous carbon dioxide. The cells were dispersed by trypsinization and recovered from the petri dishes, and seeded to a 6-well plate at 2.5×10^4 or 4×10^4 cells per well; cultivation was begun in Dulbecco's modified Eagle medium <DMEM> medium (Sigma Co.) containing dialyzed 10% fetal bovine serum (Invitrogen Co.) at 37° C. in 5% gaseous carbon dioxide. Since plasmid-introduced transformant CHO cells grow in the medium, whereas cells without plasmid introduction die gradually, about 20 colonies of transformed CHO cell that had grown 9-13 days after the start of the cultivation were isolated. […]

[2] = target: T1, human Y2 receptor; assay: Human Y2 Receptor G Protein Binding Assay (GBA), [35S]GTPγS; format: biochemical; settings: EC50 of test compound/EC50 of PYY(3-36) (PYY3-36 taken as 1), hY2R/CHO membrane fraction
Method: (3) Test Method: Human Y2 Receptor G Protein Binding Assay (GBA)
The agonist activity of the compound of the present invention against the human Y2 receptor was measured by the method described below.
2 μL of the test compound, serially diluted with DMSO from 100 μM to 1 nM, was dispensed to a 96-well plate, and 100 μL of the membrane fraction, previously diluted with an assay buffer (50 mM Tris, 5 mM MgCl2, 150 mM NaCl, […], 0.03% NaN3, 0.1% BSA, pH 7.4) to 1 μg protein/mL, was dispensed thereto, subsequently, 100 μL of a [^35S]GTPγS (NEG030H, PerkinElmer, previously diluted with the assay buffer to 1 nM) was added, and they were mixed by pipetting. After incubation at room temperature for 120 minutes, the mixture was filtered through the cell harvester FilterMate (PerkinElmer) using the UniFilter-96 GF/C (PerkinElmer), and the filter was washed 3 times with a filtering buffer (50 mM Tris, 5 mM MgCl2, 150 mM NaCl, 0.03% NaN3, 0.05% CHAPS, pH 7.4). Thereafter, UniFilter-96 GF/C was dried in a mechanical drier for 1 hour, 15 μl of the liquid scintillator MicroScint O (PerkinElmer) was added to each well, and a measurement was taken using TopCount (PerkinElmer). The data obtained were analyzed using Prism to calculate the EC50 value. The agonist activity of the test compound was expressed as a ratio to the EC50 value of PYY3-36 taken as 1 (EC50 Ratio: EC50 of test compound/EC50 of PYY(3-36)). The results are shown in the GBA column in Table 5 (Table 5-1-Table 5-10).

Row | Substance | RBA IC50 Ratio [1] | GBA EC50 Ratio [2]
1 | Isobutanoyl-[Abu26, Cha27,36, Gly(cPr)28, Aib31]-PYY(25-36) (Isobutyryl-R[Abu][Cha][Gly(cPr)]NL[Aib]TRQR[Cha]-NH2; SMILES CC[C@H](NC(=O)[C@H](CCCNC(=N)N)NC(=O)C(C)C)C(=O)N[C@@H](CC1CCCCC1)C(=O)N[C@H](C(=O)N[C@@H](CC(N)=O)C(=O)N[C@@H](CC(C)C)C(=O)NC(C)(C)C(=O)N[C@H](C(=O)N[C@@H](CCCNC(=N)N)C(=O)N[C@@H](CCC(N)=O)C(=O)N[C@@H](CCCNC(=N)N)C(=O)N[C@@H](CC1CCCCC1)C(N)=O)[C@@H](C)O)C1CC1) [compound No. 93] | 52 | 41
2 | Ac-[D-Pro24, Iva25, Pya(4)26, Cha27,36, Nva28, Aib31, Lys30]-PYY(23-36) (Ac-S[dP][Iva][4Pal][Cha][Nva]NK[Aib]TRQR[Cha]-NH2; SMILES CCC[C@H](NC(=O)[C@H](CC1CCCCC1)NC(=O)[C@H](Cc1ccncc1)NC(=O)[C@](C)(CC)NC(=O)[C@H]1CCCN1C(=O)[C@H](CO)NC(C)=O)C(=O)N[C@@H](CC(N)=O)C(=O)N[C@@H](CCCCN)C(=O)NC(C)(C)C(=O)N[C@H](C(=O)N[C@@H](CCCNC(=N)N)C(=O)N[C@@H](CCC(N)=O)C(=O)N[C@@H](CCCNC(=N)N)C(=O)N[C@@H](CC1CCCCC1)C(N)=O)[C@@H](C)O) [compound No. 352] | 1.6 | 1.3
3 | Isobutanoyl-[Abu26, Cha27,28,36, His30, Aib31]-PYY(25-36) (Isobutyryl-R[Abu][Cha][Cha]NH[Aib]TRQR[Cha]-NH2; SMILES CC[C@H](NC(=O)[C@H](CCCNC(=N)N)NC(=O)C(C)C)C(=O)N[C@@H](CC1CCCCC1)C(=O)N[C@@H](CC1CCCCC1)C(=O)N[C@@H](CC(N)=O)C(=O)N[C@@H](Cc1c[nH]cn1)C(=O)NC(C)(C)C(=O)N[C@H](C(=O)N[C@@H](CCCNC(=N)N)C(=O)N[C@@H](CCC(N)=O)C(=O)N[C@@H](CCCNC(=N)N)C(=O)N[C@@H](CC1CCCCC1)C(N)=O)[C@@H](C)O) [compound No. 92] | 22 | 20
4 | Ac-[Aad23, D-Pro24, Cha27,28,36, Aib31]-PYY(23-36) (Ac-[Aad][dP]RH[Cha][Cha]NL[Aib]TRQR[Cha]-NH2; SMILES CC(=O)N[C@@H](CCCC(=O)O)C(=O)N1CCC[C@@H]1C(=O)N[C@@H](CCCNC(=N)N)C(=O)N[C@@H](Cc1c[nH]cn1)C(=O)N[C@@H](CC1CCCCC1)C(=O)N[C@@H](CC1CCCCC1)C(=O)N[C@@H](CC(N)=O)C(=O)N[C@@H](CC(C)C)C(=O)NC(C)(C)C(=O)N[C@H](C(=O)N[C@@H](CCCNC(=N)N)C(=O)N[C@@H](CCC(N)=O)C(=O)N[C@@H](CCCNC(=N)N)C(=O)N[C@@H](CC1CCCCC1)C(N)=O)[C@@H](C)O) [compound No. 159] | 2.8 | 1.2
5 | Isobutanoyl-[Abu26, Cha27,36, Ser28, Aib31]-PYY(25-36) (Isobutyryl-R[Abu][Cha]SNL[Aib]TRQR[Cha]-NH2; SMILES CC[C@H](NC(=O)[C@H](CCCNC(=N)N)NC(=O)C(C)C)C(=O)N[C@@H](CC1CCCCC1)C(=O)N[C@@H](CO)C(=O)N[C@@H](CC(N)=O)C(=O)N[C@@H](CC(C)C)C(=O)NC(C)(C)C(=O)N[C@H](C(=O)N[C@@H](CCCNC(=N)N)C(=O)N[C@@H](CCC(N)=O)C(=O)N[C@@H](CCCNC(=N)N)C(=O)N[C@@H](CC1CCCCC1)C(N)=O)[C@@H](C)O) [compound No. 102] | 49 | 35

Continued, values first:

Row | RBA IC50 Ratio [1] | GBA EC50 Ratio [2] | Substance
6 | 2.3 | 1.3 | Ac-[Glu23, D-Pro24, Nle25, Pya(4)26, Cha27,28,36, Lys30, Aib31]-PYY(23-36) (Ac-E[dP][Nle][4Pal][Cha][Cha]NK[Aib]TRQR[Cha]-NH2; SMILES CCCC[C@H](NC(=O)[C@H]1CCCN1C(=O)[C@H](CCC(=O)O)NC(C)=O)C(=O)N[C@@H](Cc1ccncc1)C(=O)N[C@@H](CC1CCCCC1)C(=O)N[C@@H](CC1CCCCC1)C(=O)N[C@@H](CC(N)=O)C(=O)N[C@@H](CCCCN)C(=O)NC(C)(C)C(=O)N[C@H](C(=O)N[C@@H](CCCNC(=N)N)C(=O)N[C@@H](CCC(N)=O)C(=O)N[C@@H](CCCNC(=N)N)C(=O)N[C@@H](CC1CCCCC1)C(N)=O)[C@@H](C)O) [compound No. 172]
7 | 2.7 | 1.9 | Ac-[Glu23, D-Pro24, Pya(4)26, Cha27,36, Aib28,31, Lys30]-PYY(23-36) (Ac-E[dP]R[4Pal][Cha][Aib]NK[Aib]TRQR[Cha]-NH2; SMILES CC(=O)N[C@@H](CCC(=O)O)C(=O)N1CCC[C@@H]1C(=O)N[C@@H](CCCNC(=N)N)C(=O)N[C@@H](Cc1ccncc1)C(=O)N[C@@H](CC1CCCCC1)C(=O)NC(C)(C)C(=O)N[C@@H](CC(N)=O)C(=O)N[C@@H](CCCCN)C(=O)NC(C)(C)C(=O)N[C@H](C(=O)N[C@@H](CCCNC(=N)N)C(=O)N[C@@H](CCC(N)=O)C(=O)N[C@@H](CCCNC(=N)N)C(=O)N[C@@H](CC1CCCCC1)C(N)=O)[C@@H](C)O) [compound No. 209]
8 | 1.9 | 1.1 | Ac-[βAla24, Pya(4)26, Cha27,36, Aib28,31, Lys30]-PYY(23-36) (Ac-S[βAla]R[4Pal][Cha][Aib]NK[Aib]TRQR[Cha]-NH2; SMILES CC(=O)N[C@@H](CO)C(=O)NCCC(=O)N[C@@H](CCCNC(=N)N)C(=O)N[C@@H](Cc1ccncc1)C(=O)N[C@@H](CC1CCCCC1)C(=O)NC(C)(C)C(=O)N[C@@H](CC(N)=O)C(=O)N[C@@H](CCCCN)C(=O)NC(C)(C)C(=O)N[C@H](C(=O)N[C@@H](CCCNC(=N)N)C(=O)N[C@@H](CCC(N)=O)C(=O)N[C@@H](CCCNC(=N)N)C(=O)N[C@@H](CC1CCCCC1)C(N)=O)[C@@H](C)O) [compound No. 222]
